{"source": "patent US20230066517A1", "about": "“Phospholipid Ether Conjugates as Cancer-Targeting Drug Vehicles” (Cellectar Biosciences, Inc., priority 2019, published 2023)", "key": {"[1]": {"experiment": "Cyprotex Plasma Stability assay, human plasma", "assay_type": "in vitro ADME", "method": "To determine whether cytotoxic PDCs are tolerated in vivo, C57BL/6 mice were dosed in the following manner: PDC-SM2 was dosed on days 0, 3 and 7 at dose levels of 0.5 mg/kg, 1.0 mg/kg, or 2.0 mg/kg; Payload alone was dosed on day 0 only at 0.25 mg/kg, 0.4 mg/kg, or 0.5 mg/kg; vehicle was dosed on day 0, 3 and 7. […] Payload dose of 0.5 mg/kg was not tolerated, two mice died by day 4 following a single infusion and all mice were sacrificed on day 5 (FIG. 5). […] Plasma stability was measured using Cyprotex’s Plasma Stability assay. The samples were at a concentration of 1 µM and were incubated at 0, 15, 30, 60 and 120 minutes. A positive control compound which undergoes degradation in plasma was used. The percent of the compound remaining at each incubation time point was measured. […] Overall, PDCs offer a novel and unique approach to targeting small molecules to tumor cells."}, "[2]": {"experiment": "Cyprotex Plasma Stability assay, mouse plasma", "assay_type": "in vitro ADME", "method": "To determine whether cytotoxic PDCs are tolerated in vivo, C57BL/6 mice were dosed in the following manner: PDC-SM2 was dosed on days 0, 3 and 7 at dose levels of 0.5 mg/kg, 1.0 mg/kg, or 2.0 mg/kg; Payload alone was dosed on day 0 only at 0.25 mg/kg, 0.4 mg/kg, or 0.5 mg/kg; vehicle was dosed on day 0, 3 and 7. […] Plasma stability was measured using Cyprotex’s Plasma Stability assay. The samples were at a concentration of 1 µM and were incubated at 0, 15, 30, 60 and 120 minutes. A positive control compound which undergoes degradation in plasma was used. The percent of the compound remaining at each incubation time point was measured."}, "[3]": {"test_system": "MCF-7 breast cancer cells", "experiment": "In vitro uptake and release of CLR2000045, LC/MS/MS", "assay_type": "cell-based", "method": "(§1) In vitro uptake of CLR2000045 was assessed using MCF-7 breast cancer cells and normal human dermal fibroblasts (NHDF) cells and was measured via LC/MS/MS. The breast cancer cells were maintained in minimum essential medium supplemented with 10% FBS. All cells were maintained at 37° C. and 5% CO2. Cells were incubated with 1 µM of drug and reported values were the average of triplicate assessments. In vitro cytotoxicity was determined by Cell Titer-Glo® assay using MCF-7 breast cancer cells and Hs578T triple negative breast cancer cells."}, "[4]": {"test_system": "normal human dermal fibroblasts (NHDF) cells", "experiment": "In vitro uptake of CLR2000045, LC/MS/MS", "assay_type": "cell-based", "conditions": "1 µM", "method": "as §1"}, "[5]": {"test_system": "Hs578T triple negative breast cancer cells", "experiment": "In vitro cytotoxicity, Cell Titer-Glo assay", "assay_type": "cell-based", "conditions": "FIG. 7", "method": "as §1\nBetween 24 and 48 hours a steady state between uptake and release of the warhead was achieved (FIG. 6). […] Half maximal inhibitory concentration (IC50) was measured in the cell lines (TABLE 2). Plasma stability of CLR2000045 was also measured (TABLE 3)."}, "[6]": {"test_system": "HCC70 triple negative breast cancer (TNBC) xenografts", "experiment": "In vivo efficacy in TNBC xenograft model", "design": "species or system R2G2 mice", "method": "In vivo efficacy was further assessed in R2G2 mice bearing HCC70 triple negative breast cancer (TNBC) xenografts. Three doses (1 mg/kg) given once, twice or 3 times per week for 2 weeks of CLR2000045 were assessed. CLR2000045 was administered systemically by injection of the tail vein. Each group contained 10 mice. Tumor volume was monitored for efficacy and body weight for tolerability. Survival was also monitored.\nThe study was initiated when group mean tumor volume reached ~200 mm^3 (Day 4). CLR2000045 was dosed IV at the following doses: 1 mg/kg on either day 5 and 12 or day 5, 8, 12 and 15 or day 5, 7, 9, 12, 14, and 16. […] Changes in body weight post treatment were measured in the (HCC70) mouse xenograft model (FIG. 11A and FIG. 11B)."}, "[7]": {"test_system": "MCF-7 breast cancer cells", "conditions": "FIG. 7", "procedure": "The breast cancer cells were maintained in minimum essential medium supplemented with 10% FBS. All cells were maintained at 37° C. and 5% CO2. […] In vitro cytotoxicity was determined by Cell Titer-Glo® assay using MCF-7 breast cancer cells and Hs578T triple negative breast cancer cells."}, "HCT 116 xenografts": {"test_system": "HCT 116 xenografts", "experiment": "In vivo efficacy in colorectal cancer xenograft model", "design": "species or system athymic nude mice", "conditions": "10 mg/kg on day 1 and 4", "method": "CLR180099 was administered intravenously (IV) to healthy C57BL/6 mice to determine the maximum tolerated dose (MTD) as compared to the FLV molecule alone. The vehicle used to administer CLR180099 was PBS in this case, however any pharmaceutically suitable vehicle may be used. Each group contained 5 mice. In vivo efficacy was assessed in athymic nude mice bearing HCT 116 xenografts. The mice were flank models which were developed by injecting the hind flank of the mice with about 1x10^6 of the cells resuspended in […] of 1.2% methylcellulose. The study was initiated when group mean tumor volume reached about 120 mm^3. Tumor volume was measured using calipers - measurements of the length, width, and depth of the tumor were used to calculate the tumor volume. Two doses (2 mg/kg given 2 times or 2 mg/kg given 3 times) of CLR180099 were assessed. Each group contained 10 mice. Tumor volume was monitored for efficacy and body weight for tolerability. Total conjugated CLR180099 and free FLV were determined via mass spectrometry.\nThe study was initiated when group mean tumor volume reached -120 mm^3 (Day 1). CLR180099 was dosed IV at 2 mg/kg on either day 1 and 4 or day 1, 3 and 5. Docetaxel was dosed at 10 mg/kg on day 1 and 4. […] Five mice per group were dosed at each dose level. Both PDCs were tolerated up to dose of 10 mg/kg with all mice alive and showing no end organ toxicities (TABLE 5). […]"}, "[8]": {"conditions": "Table 1, 1 µM, 0-120 minutes, read-out: Human T½"}}, "note": "Starred links: 1 amine or outer side, 2 acyl side, 3 side chain; linkers in the order of their positions; H or OH if unused. Non-standard residues stand in square brackets, D forms with d. Residues, ends and D or L forms follow the SMILES beside them. *: point of attachment. X1 = C[N+](C)(C)CCOP(=O)([O-])OCCCCCCCCCCCCCCCCCCc1ccc(C(=O)*)cc1; Dolaproine = CO[C@@H]([C@@H]1CCCN1)[C@@H](C)C(=O)O; Dil = CC[C@H](C)[C@H](NC)[C@@H](CC(=O)O)OC; PABC = O=C(OCc1ccc(N[*:1])cc1)[*:2]; X2 = C[C@@H](N*)[C@@H](O)c1ccccc1; Cit = NC(=O)NCCC[C@H](N)C(=O)O; NMeV = CN[C@H](C(=O)O)C(C)C"}
{"smiles": "C=C(c1ccc(OC)c(NP(=O)(O)OP(=O)(O)OCCNC(=O)c2ccc(CCCCCCCCCCCCCCCCCCOP(=O)([O-])OCC[N+](C)(C)C)cc2)c1)c1cc(C)nc2ccccc12", "note": "[CLR2013]", "values": [{"measurement": "half-life at 1 µM", "setting": "[1]; Table 3, read-out: Human t½", "result": "> 6.67", "unit": "h"}, {"measurement": "half-life at 1 µM", "setting": "[2]; Table 3, read-out: Mouse t½", "result": 1.28, "unit": "h"}]}
{"smiles": "COC(=O)[C@@H]1[C@H](O)[C@]2(O)c3c(OC)cc(OCCCCNC(=O)OCC(C)(C)SSCCCCCCCCCCCCCCCCCCOP(=O)([O-])OCC[N+](C)(C)C)cc3O[C@]2(c2ccc(OC)cc2)[C@H]1c1ccccc1", "note": "[CLR1800095]", "values": [{"measurement": "half-life at 1 µM", "setting": "[1]; Table 4, read-out: Human t½", "result": "> 6.67", "unit": "h"}, {"measurement": "stability in mouse plasma (in words)", "setting": "[2]", "result": "some instability"}, {"measurement": "half-life at 1 µM", "setting": "[2]; Table 4, read-out: Mouse t½", "result": 3.32, "unit": "h"}]}
{"smiles": "C=C(c1ccc(OC)c(NC(=O)OCc2ccc(OP(=O)(O)OP(=O)(O)OCCNC(=O)c3ccc(CCCCCCCCCCCCCCCCCCOP(=O)([O-])OCC[N+](C)(C)C)cc3)cc2)c1)c1cc(C)nc2ccccc12", "note": "[CLR2000045]", "values": [{"measurement": "half-life at 1 µM", "setting": "[1]; Table 3, read-out: Human t½", "result": "> 6.67", "unit": "h"}, {"measurement": "half-life at 1 µM", "setting": "[2]; Table 3, read-out: Mouse t½", "result": "> 6.67", "unit": "h"}, {"measurement": "uptake in tumor cells", "setting": "[3]; 1 µM", "result": "significant uptake"}, {"measurement": "release of the warhead", "setting": "[3]; at each timepoint", "result": "approximately 50%"}, {"measurement": "uptake and release of payload, share of exposed drug", "setting": "[3]; tumor cell lines", "result": "20-40%"}, {"measurement": "uptake in normal tissue", "setting": "[4]", "result": "minimal uptake"}, {"measurement": "IC50", "setting": "[5]", "result": 51, "unit": "nM"}, {"measurement": "eradication of the tumor", "setting": "[6]; 1 mg/kg IV 3 times per week for 2 weeks (highest dose)", "result": "~100", "unit": "%"}, {"measurement": "tumor volume compared to vehicle control", "setting": "[6]; 1 mg/kg IV, 2 highest dose groups (2x and 3x per week for 2 weeks), p≤0.05 and p≤0.01", "result": "statistically significant reduction in tumor volume"}, {"measurement": "survival (Kaplan-Meier)", "setting": "[6]; 1 mg/kg three times per week for 2 weeks, vs vehicle (p≤0.001) and 1 time per week (p≤0.05)", "result": "significant increase in survival"}, {"measurement": "survival (Kaplan-Meier)", "setting": "[6]; 1 mg/kg twice a week for two weeks, vs vehicle (p≤0.05)", "result": "significant increase"}, {"measurement": "tolerability as measured by body weight loss", "setting": "[6]; two highest doses", "result": "well tolerated"}, {"measurement": "IC50", "setting": "[7]", "result": 76, "unit": "nM"}]}
{"smiles": "CC[C@H](C)[C@@H]([C@@H](CC(=O)N1CCC[C@H]1[C@H](OC)[C@@H](C)C(=O)N[C@H](C)[C@@H](O)c1ccccc1)OC)N(C)C(=O)[C@@H](NC(=O)[C@H](C(C)C)N(C)C(=O)OCc1ccc(NC(=O)[C@H](CCCNC(N)=O)NC(=O)[C@@H](NC(=O)c2ccc(CCCCCCCCCCCCCCCCCCOP(=O)([O-])OCC[N+](C)(C)C)cc2)C(C)C)cc1)C(C)C", "note": "[PDC-SM3] (X1-V[Cit][PABC][NMeV]V[Dil][Dolaproine]-X2)", "values": [{"measurement": "half-life at 1 µM", "setting": "[1]; [8]", "result": "> 6.67", "unit": "h"}, {"measurement": "half-life at 1 µM", "setting": "[2]; Table 1, 1 µM, 0-120 minutes, read-out: Mouse T½", "result": "> 6.67", "unit": "h"}]}
{"smiles": "CC(C)[N+](C)(CCOC(=O)C1c2ccccc2Oc2ccccc21)C(C)C", "note": "[Propantheline, reference compound]", "values": [{"measurement": "half-life at 1 µM", "setting": "[1]; [8]", "result": 0.9, "unit": "h"}, {"measurement": "half-life at 1 µM", "setting": "[1]; Table 3, read-out: Human t½", "result": 1.28, "unit": "h"}, {"measurement": "half-life at 1 µM", "setting": "[1]; Table 4, read-out: Human t½", "result": 0.9, "unit": "h"}, {"measurement": "half-life at 1 µM", "setting": "[2]; Table 3, read-out: Mouse t½", "result": 0.95, "unit": "h"}]}
{"smiles": "CC(=O)O[C@@]12CO[C@@H]1C[C@H](O)[C@@]1(C)C(=O)[C@H](O)C3=C(C)[C@@H](OC(=O)[C@H](O)[C@@H](NC(=O)OC(C)(C)C)c4ccccc4)C[C@@](O)([C@@H](OC(=O)c4ccccc4)[C@H]21)C3(C)C", "note": "[docetaxel]", "values": [{"measurement": "deaths in treatment arm", "setting": "HCT 116 xenografts", "result": "multiple deaths starting at day 18 and ending at day 26"}]}
